Consider four substances from article PMC6386982, “A Thermostable Monoacylglycerol Lipase from Marine Geobacillus sp. 12AMOR1: Biochemical Characterization and Mutagenesis Study” (International Journal of Molecular Sciences, 2019).

Holding throughout (assay): purified protein
Holding throughout (type): biochemical, Geobacillus sp. 12AMOR1
Common to all, as to conditions: 20 mM Tris-HCl pH 8.0, 30 °C

Data set [1] relates to T1, CCCC(=O)Oc1ccc([N+](=O)[O-])cc1.
T1 construct: catalytic triad Ser97, Asp196, His226

The test system of data set [2] is T2, CCCCCC(=O)Oc1ccc([N+](=O)[O-])cc1.
T2 construct: catalytic triad Ser97, Asp196, His226

For data set [3], the system named is T3, CCCCCCCC(=O)Oc1ccc([N+](=O)[O-])cc1.
T3 construct: catalytic triad Ser97, Asp196, His226

As for “GMGL (Geobacillus sp. monoacylglycerol lipase) (Geobacillus sp. 12AMOR1)”, the Km is on record as 6.80 mM in data set [1], 4.06 mM in data set [2] and 2.83 mM in data set [3]. For the same substance, the kcat in data set [1] worked out at 9.74 s⁻¹; in data set [2] it was 4.31 s⁻¹; in data set [3], 2.58 s⁻¹. Moreover, the kcat/Km in data set [1] was determined as 1430 M⁻¹ s⁻¹; in data set [2], 1060 M⁻¹ s⁻¹; in data set [3] it was 910 M⁻¹ s⁻¹.

Consider “GMGL (Geobacillus sp. monoacylglycerol lipase) (Geobacillus sp. 12AMOR1; I170F)”, for which, in data set [1], the Km is recorded as 2.37 mM, the kcat turned out to be 3.31 s⁻¹ and the kcat/Km came out at 1210 M⁻¹ s⁻¹. Moreover, in data set [2], the Michaelis-Menten constant (Km) was 1.60 mM, the kcat was 3.67 s⁻¹ and the kcat/Km turned out to be 2290 M⁻¹ s⁻¹. For the same substance, in data set [3], the Km worked out at 4.63 mM, the kcat was 2.08 s⁻¹ and the kcat/Km turned out to be 450 M⁻¹ s⁻¹.

Consider “GMGL (Geobacillus sp. monoacylglycerol lipase) (Geobacillus sp. 12AMOR1; L142A)”, for which, in data set [1], the Michaelis constant (Km) stood at 14.78 mM, the kcat was 15.9 s⁻¹ and the kcat/Km is 1080 M⁻¹ s⁻¹. Besides, in data set [2], the Km is given as 1.66 mM, the kcat was 4.08 s⁻¹ and the kcat/Km came to 2460 M⁻¹ s⁻¹. For the same substance, in data set [3], the Km is reported as 4.65 mM, the kcat was determined as 1.29 s⁻¹ and the kcat/Km came out at 280 M⁻¹ s⁻¹.

Take “GMGL (Geobacillus sp. monoacylglycerol lipase) (Geobacillus sp. 12AMOR1; I145A)”: in data set [1], the Km is 9.56 mM, the kcat turned out to be 3.25 s⁻¹ and the kcat/Km was 340 M⁻¹ s⁻¹. Further, in data set [2], the Km is reported as 1.34 mM, the kcat turned out to be 2.02 s⁻¹ and the kcat/Km turned out to be 1510 M⁻¹ s⁻¹. Besides, in data set [3], the Km worked out at 8.32 mM, the kcat was 0.95 s⁻¹ and the kcat/Km was determined as 110 M⁻¹ s⁻¹.

In general, Km refers to the concentration of substrate that gives half-maximal velocity. By kcat is commonly meant the number of substrate molecules converted per active site and unit of time at saturation. One may read the kcat/Km as the second-order rate constant that governs catalysis at low substrate concentration.
